Measured values: paper PMC6379670, “An ultra-high affinity ligand of HIV-1 TAR reveals the RNA structure recognized by P-TEFb” (Nucleic Acids Research, 2018)
Non-standard residues stand in square brackets, D forms with d. Residues, ends and D or L forms follow the SMILES beside them. *: point of attachment. 5FAM = O=C1OC2(c3ccc(O)cc3Oc3cc(O)ccc32)c2ccc(C(=O)*)cc21

How the values were obtained:
2D10 Jurkat cells = assay type: cell-based; conditions: 1 mg/ml peptide in the extracellular medium, percent of cells containing peptide by flow cytometry
Experimental: (§1) Frozen, de-identified human PBMCs (Allcells, Alameda, CA) were thawed and stimulated with 6 IU IL-2 (R&D Systems, Minneapolis, MN) and 10 μg/ml concanavalin A (ConA, MilliporeSigma, Billerica, MA) in RPMI. Six days post-thaw, CD4+ T cells were positively isolated using an EasySep Human CD4 positive selection kit in a RoboSep robot (#18052RF, Stemcell Technologies, Cambridge, MA). 2D10 Jurkat cells ([38]) were also grown in RPMI. L22 selectively labeled with 5/6-carboxyfluorescein was added at indicated concentrations at indicated time points prior to flow cytometry analysis as described above.
(§2) Fig. S4. Uptake of fluorescein-labeled L22. a). The turn residue, Lys6, of L22 was first selectively labeled with 5/6-carboxyfluorescein using NHS coupling chemistry and incubated with either CD4+ T cells (top) […]
(§3) containing peptide was analyzed by flow cytometry. b). 2D10 Jurkat cells were first stimulated with TNFα for 4hrs then incubated with L22-AF647 (red) for 30min prior to FISH staining for HIV TAR RNA (yellow), nuclear staining with DAPI (blue) and GFP expression dependent on transcription of HIV (green).
(§4) Panel I overlay all four stains, Panel II is L22-AF647 only; Panel III is L22-AF647 and TAR FISH, Panel IV L22-AF647 and GFP expression.
(§5) (1 picture or pasted object on this page, not shown here)

CD4+ T cells = assay type: cell-based; conditions: human CD4+ T-cells; 1 mg/ml peptide in the extracellular medium; percent of cells containing peptide by flow cytometry
Experimental: as §1, §2, §3, §4, §5

For `CC[C@H](C)[C@@H]1NC(=O)[C@H](CCCNC(=N)N)NC(=O)[C@H](CCCNC(=N)N)NC(=O)CNC(=O)[C@H](CCCCNC(=O)c2ccc3c(c2)C(=O)OC32c3ccc(O)cc3Oc3cc(O)ccc32)NC(=O)[C@H](CCCNC(=N)N)NC(=O)[C@H]([C@@H](C)O)NC(=O)[C@H](CCCNC(=N)N)NC(=O)[C@H](C(C)C)NC(=O)[C@H](CCCNC(=N)N)NC(=O)[C@@H]2CCCN2C(=O)[C@H]2CCCN2C(=O)[C@H]([C@@H](C)CC)NC(=O)[C@H](CCCNC(=N)N)NC1=O` [fluorescein-labeled L22] (cyclo(RVRTRK(5FAM)GRRIRI[dP]P)), the “uptake (in words)” value (2D10 Jurkat cells) was “good uptake” and the “uptake (in words)” value (CD4+ T cells) was “good uptake”.
